These results are taken from patent US20130330414A1.

The test deals with 8.3-TCR on 8.3-CD8+ T-cells of 8.3-TCR-transgenic NOD mice. Briefly: cell-based or functional assay.

Chain of IGRP206-214/K^d pMHC complex (P01902 22-305, one chain of several): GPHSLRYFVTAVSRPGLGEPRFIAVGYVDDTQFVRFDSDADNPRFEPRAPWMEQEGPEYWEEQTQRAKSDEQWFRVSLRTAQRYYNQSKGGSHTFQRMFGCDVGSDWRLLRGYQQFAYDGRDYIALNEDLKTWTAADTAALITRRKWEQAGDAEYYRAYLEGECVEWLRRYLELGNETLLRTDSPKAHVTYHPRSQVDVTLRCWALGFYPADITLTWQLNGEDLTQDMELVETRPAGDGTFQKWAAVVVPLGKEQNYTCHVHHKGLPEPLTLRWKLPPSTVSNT

Substance “IGRP206-214/K^d pMHC complex (from UniProt Q9Z186 206-214; P01902 22-305) (peptide-MHC)” had an IFNγ responses (ng/mL); NP IGRP-SFP-011411, Fe3O4 8 nm, pMHC valency 54, 5 × 10^11 NPs/mL of 2.3 ng/mL; an IFNγ responses (ng/mL); NP IGRP-SFP-012011, Fe3O4 8 nm, pMHC valency 14, 5 × 10^11 NPs/mL of 0.2 ng/mL; an IFNγ responses (ng/mL); NP IGRP-SFP-031511, Fe3O4 8 nm, pMHC valency 15, 5 × 10^11 NPs/mL of 0.15 ng/mL; an IFNγ responses (ng/mL); NP IGRP-SFP-051211, Fe3O4 8 nm, pMHC valency 31, 5 × 10^11 NPs/mL of 0.7 ng/mL. The same substance came in with an IFNγ responses (ng/mL); NP IGRP-SFP-100711, Fe3O4 8 nm, pMHC valency 39, 5 × 10^11 NPs/mL of 0.9 ng/mL; an IFNγ responses (ng/mL); NP IGRP-SFP-102912, Fe3O4 8 nm, pMHC valency 11, 5 × 10^11 NPs/mL of 0.4 ng/mL; an IFNγ responses (ng/mL); NP IGRP-SFPM-110512, Fe3O4 8 nm, pMHC valency 8, 5 × 10^11 NPs/mL of 0.03 ng/mL.
